This is an account of results in PMC11536930 (Nature structural & molecular biology, 2024).

The series “cryo-EM structure” concerns the molecule itself. The experiment in a line: cryo-EM structure.
Series [1] has as its target rat GluA2 flip(Q) isoform (unedited homotetrameric AMPA receptor), FLAG-tagged (rat, UniProt P19491-2 22-883). The experiment in a line: cryo-EM structure.

B1: rat GluA2 flip(Q) isoform N619K mutant, FLAG-tagged (receptor, UniProt P19491-2 22-883, looked up)
chain: VSSNSIQIGGLFPRGADQEYSAFRVGMVQFSTSEFRLTPHIDNLEVANSFAVTNAFCSQFSRGVYAIFGFYDKKSVNTITSFCGTLHVSFITPSFPTDGTHPFVIQMRPDLKGALLSLIEYYQWDKFAYLYDSDRGLSTLQAVLDSAAEKKWQVTAINVGNINNDKKDETYRSLFQDLELKKERRVILDCERDKVNDIVDQVITIGKHVKGYHYIIANLGFTDGDLLKIQFGGANVSGFQIVDYDDSLVSKFIERWSTLEEKEYPGAHTATIKYTSALTYDAVQVMTEAFRNLRKQRIEISRRGNAGDCLANPAVPWGQGVEIERALKQVQVEGLSGNIKFDQNGKRINYTINIMELKTNGPRKIGYWSEVDKMVVTLTELPSGNDTSGLENKTVVVTTILESPYVMMKKNHEMLEGNERYEGYCVDLAAEIAKHCGFKYKLTIVGDGKYGARDADTKIWNGMVGELVYGKADIAIAPLTITLVREEVIDFSKPFMSLGISIMIKKPQKSKPGVFSFLDPLAYEIWMCIVFAYIGVSVVLFLVSRFSPYEWHTEEFEDGRETQSSESTNEFGIFNSLWFSLGAFMQQGCDISPRSLSGRIVGGVWWFFTLIIISSYTAKLAAFLTVERMVSPIESAEDLSKQTEIAYGTLDSGSTKEFFRRSKIAVFDKMWTYMRSAEPSVFVRTTAEGVARVRKSKGKYAYLLESTMNEYIEQRKPCDTMKVGGNLDSKGYGIATPKGSSLGTPVNLAVLKLSEQGVLDKLKNKWWYDKGECGAKDSGSKEKTSALSLSNVAGVFYILVGGLGLAMLVALIEFCYKSRAEAKRMKVAKNPQNINPSSSQNSQNFATYKEGYNVYGIESVKI
For B1, the binding result in the series “cryo-EM structure” is given as “binds”.

B2: rat TARPγ2 (stargazin) K52E/K53E (KKEE) mutant, 1D4-tagged (natural protein)
chain: MGLFDRGVQMLLTTVGAFAAFSLMTIAVGTDYWLYSRGVCKTKSVSENETSEENEEVMTHSGLWRTCCLEGNFKGLCKQIDHFPEDADYEADTAEYFLRAVRASSIFPILSVILLFMGGLCIAASEFYKTRHNIILSAGIFFVSAGLSNIIGIIVYISANAGDPSKSDSKKNSYSYGWSFYFGALSFIIAEMVGVLAVHMFIDRHKQLRATARATDYLQASAITRIPSYRYRYQRRSRSSSRSTEPSHSRDASPVGVKGFNTLPSTEISMYTLSRDPLKAATTPTATYNSDRDNSFLQVHNCIQKDSKDSLHANTANRRTTPV
With B2, the “stoichiometry N” value in series [1] was 4 γ2(KKEE) per A2iQ tetramer.
